This passage reports Km results from PMC6932780, “Comprehensive analysis of putative dihydroflavonol 4-reductase gene family in tea plant” (PLoS ONE, 2019).

Broadly, the Km is the concentration of substrate that gives half-maximal velocity.

Common to all, as to test: purified protein
What all share (format): biochemical, Camellia sinensis
What all share (details): 0.24 mM NADPH, citrate-phosphate buffer pH 7.2, 25°C

Substrate in data set [1]: O=C1c2c(O)cc(O)cc2O[C@H](c2cc(O)c(O)c(O)c2)[C@H]1O
Substrate in data set [2]: O=C1c2c(O)cc(O)cc2O[C@H](c2ccc(O)c(O)c2)[C@H]1O
Substrate in data set [3]: O=C1c2c(O)cc(O)cc2O[C@H](c2ccc(O)cc2)[C@H]1O

B1: CsDFRa (Camellia sinensis) (protein)
chain: MKDSVASATASAPGTVCVTGAAGFIGSWLVMRLLERGYIVRATVRDPANLKKVKHLLDLPKADTNLTLWKADLNEEGSFDEAIEGCSGVFHVATPMDFESKDPENEVIKPTINGVLSIIRSCTKAKTVKRLVFTSSAGTVNVQEHQQPVFDENNWSDLDFINKKKMTGWMYFVSKTLAEKAAWEAAKENNIDFISIIPTLVVGPFIMPTFPPSLITALSPITRNEGHYSIIKQGQFVHLDDLCESHIFLYERPQAEGRYICSSHDATIHDLAKLMREKWPEYNVPTEFKGIDKDLPVVSFSSKKLIGMGFEFKYSLEDMFRGAIDTCREKGLLPHSFAENPVNGNKV
notes: full-length ORF in pET-32a, E. coli Rosetta (DE3), Ni Sepharose purified, vector tag removal not mentioned
For B1, the figures for the Michaelis-Menten constant (Km) in “purified protein [1]”, in “purified protein [2]” and in the data set “purified protein [3]” were 43.0 µM, 8.0 µM and 539.8 µM, respectively.

B2: CsDFRa (Camellia sinensis; N141D) (protein)
chain: MKDSVASATASAPGTVCVTGAAGFIGSWLVMRLLERGYIVRATVRDPANLKKVKHLLDLPKADTNLTLWKADLNEEGSFDEAIEGCSGVFHVATPMDFESKDPENEVIKPTINGVLSIIRSCTKAKTVKRLVFTSSAGTVDVQEHQQPVFDENNWSDLDFINKKKMTGWMYFVSKTLAEKAAWEAAKENNIDFISIIPTLVVGPFIMPTFPPSLITALSPITRNEGHYSIIKQGQFVHLDDLCESHIFLYERPQAEGRYICSSHDATIHDLAKLMREKWPEYNVPTEFKGIDKDLPVVSFSSKKLIGMGFEFKYSLEDMFRGAIDTCREKGLLPHSFAENPVNGNKV
notes: as for B1
Consider B2, for which the Km in the data set “purified protein [1]” turned out to be 37.2 µM; in the data set “purified protein [2]” it was 252.0 µM.

B3: CsDFRa (Camellia sinensis; N141A) (protein)
chain: MKDSVASATASAPGTVCVTGAAGFIGSWLVMRLLERGYIVRATVRDPANLKKVKHLLDLPKADTNLTLWKADLNEEGSFDEAIEGCSGVFHVATPMDFESKDPENEVIKPTINGVLSIIRSCTKAKTVKRLVFTSSAGTVAVQEHQQPVFDENNWSDLDFINKKKMTGWMYFVSKTLAEKAAWEAAKENNIDFISIIPTLVVGPFIMPTFPPSLITALSPITRNEGHYSIIKQGQFVHLDDLCESHIFLYERPQAEGRYICSSHDATIHDLAKLMREKWPEYNVPTEFKGIDKDLPVVSFSSKKLIGMGFEFKYSLEDMFRGAIDTCREKGLLPHSFAENPVNGNKV
notes: as for B1
With B3, the Michaelis-Menten constant (Km) in the data set “purified protein [1]” was 90.6 µM; in “purified protein [2]”, 88.5 µM; in “purified protein [3]”, 398.1 µM.
